Results: patent CN117603356A (HAIBO HUAJIAN HUZHOU PHARMACEUTICAL TECH CO LTD, dated 2024)

B1: PI-28-hFc (Fc fusion)
chain: EVKLVESGGGSVQAGGSLRLSCAASGYTYSSACMGWFRQAPGKERDWVALIDGIGSTTYTDSVKGRFTISQDNAKNTLYLQMNSLKPEDTATYYCAADLLSGGYCHPVGGGARDWGGPVVADFTYWGQGTQVTVSS
notes: VHH inserted into the pFCIG-hIgG1 plasmid, expressed in HEK293F; also called 单克隆PI-28-hFc; not shown: human IgG1 Fc fragment (hFC) from the bought expression plasmid pFCIG-hIgG1
B2: PI-74-hFc (Fc fusion)
chain: EVKLVESGGGSVQAGGSLRLSCTASGPTYGRTCMGWFRQAPGREREGVATIETKGLTRYTYYADSVKGRFTISQDDAKNTLYLQMNSLKPEDTAMYYCAADGPGCSGGAFIARGRWYPHWGQGTQVTVSS
notes: VHH inserted into the pFCIG-hIgG1 plasmid, expressed in HEK293F; also called 单克隆PI-74-hFc; not shown: human IgG1 Fc fragment (hFC) from the bought expression plasmid pFCIG-hIgG1
B3: PI-21-hFc (Fc fusion)
chain: QVKLVQSGGGLVQPGGSLRLSCAASGFTFENYAMGWLRQAPGEGLEWVSSINYNGDVTAYTTSVKGRFTVSRDNAKNTLYLQLNDLKIDDTAMYYCAKGRYGWALSREDYNTRGQGTQVTVSS
notes: VHH inserted into the pFCIG-hIgG1 plasmid, expressed in HEK293F; also called 单克隆PI-21-hFc; not shown: human IgG1 Fc fragment (hFC) from the bought expression plasmid pFCIG-hIgG1
B4: PI-19-hFc (Fc fusion)
chain: EVQLVESGGGSVQAGGSLRLSCAASGITISNNCMGWFRQAPGKEREGVALLYSTSSTSSQKSHADSVKGRFTISRDNAKNTVYLQMNSLKPEDSAMYYCAAKSGVCRWNWEYGMDYWDWGKGTLVTISS
notes: VHH inserted into the pFCIG-hIgG1 plasmid, expressed in HEK293F; also called 单克隆PI-19-hFc; not shown: human IgG1 Fc fragment (hFC) from the bought expression plasmid pFCIG-hIgG1

The binders below were run against T1, Human-pIgR-ECD-his抗原重组蛋白 (human, UniProt P01833 19-638) (assay: ELISA, antigen coated, anti-human IgG Fc HRP).
T1 construct: extracellular domain; Recombinant antigen coated on the ELISA plate (200 ng/well); also called PI蛋白; not shown: his tag
T1 sequence (P01833 19-638): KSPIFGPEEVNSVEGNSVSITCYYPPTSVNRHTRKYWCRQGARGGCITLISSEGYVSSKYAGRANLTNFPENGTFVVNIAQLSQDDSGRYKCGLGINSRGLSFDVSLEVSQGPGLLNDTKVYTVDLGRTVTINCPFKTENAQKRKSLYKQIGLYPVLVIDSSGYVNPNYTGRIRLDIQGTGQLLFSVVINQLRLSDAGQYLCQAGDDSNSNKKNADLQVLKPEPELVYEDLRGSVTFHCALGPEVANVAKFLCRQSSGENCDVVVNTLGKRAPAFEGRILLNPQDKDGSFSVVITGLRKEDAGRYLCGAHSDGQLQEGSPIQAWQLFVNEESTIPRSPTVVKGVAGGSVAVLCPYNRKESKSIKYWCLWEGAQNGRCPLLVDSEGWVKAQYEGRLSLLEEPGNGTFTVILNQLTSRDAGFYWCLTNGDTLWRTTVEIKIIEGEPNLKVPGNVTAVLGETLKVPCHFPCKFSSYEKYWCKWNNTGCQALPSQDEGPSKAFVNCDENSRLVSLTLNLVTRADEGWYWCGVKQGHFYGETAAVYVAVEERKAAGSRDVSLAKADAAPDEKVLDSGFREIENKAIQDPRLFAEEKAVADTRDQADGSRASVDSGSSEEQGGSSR

Binding result, binds:
B1
B2
B3
B4
